For assay [1], the target named is the antibody (of the immunochromatographic analysis device used in Test Example 8). Kind of assay: competitive inhibition in the immunochromatographic sandwich on VZV gE recombinant protein, P4 added; row 0.5 ng/mL.
For assay [2] the target is unchanged. In words: competitive inhibition in the immunochromatographic sandwich on VZV gE recombinant protein, P4 added; row 5 ng/mL.
The target is the same in assay [3]. In words: competitive inhibition in the immunochromatographic sandwich on VZV gE recombinant protein, P1 added; row 5 ng/mL.
The target is the same in assay [4]. In words: competitive inhibition in the immunochromatographic sandwich on VZV gE recombinant protein, P1 added; row 0.5 ng/mL.
Assay [5] shares this target. In words: competitive inhibition in the immunochromatographic sandwich on VZV gE recombinant protein, P2 added; row 5 ng/mL.
Assay [6] shares this target. Kind of assay: competitive inhibition in the immunochromatographic sandwich on VZV gE recombinant protein, P2 added; row 0.5 ng/mL.
For assay [7], the target named is VZV gE recombinant protein (CalBioreagents, Inc.) (varicella-zoster virus) (UniProt P09259). Kind of assay: immunochromatographic sandwich; row antibody gold-labelled, Antibody 4 on the detection line.
Assay [8] has the same target. In words: immunochromatographic sandwich; row antibody gold-labelled, Antibody 18 on the detection line.
Assay [9] has the same target. In words: immunochromatographic sandwich; row antibody gold-labelled, Antibody 2 on the detection line.
Assay [10] shares this target. Kind of assay: immunochromatographic sandwich; row antibody gold-labelled, Antibody 3 on the detection line.
Assay [11] has the same target. In words: immunochromatographic sandwich; row antibody gold-labelled, Antibody 9 on the detection line.
Assay [12] has the same target. Kind of assay: immunochromatographic sandwich; row antibody gold-labelled, Antibody 5 on the detection line.
The target of assay [13] is the antibody (of the immunochromatographic analysis device used in Test Example 8). In words: competitive inhibition in the immunochromatographic sandwich on VZV gE recombinant protein, P3 added; row 5 ng/mL.
For assay [14] the target is unchanged. Kind of assay: competitive inhibition in the immunochromatographic sandwich on VZV gE recombinant protein, P3 added; row 0.5 ng/mL.

Sequence of VZV gE recombinant protein (CalBioreagents, Inc.) (varicella-zoster virus) (P09259 31-538 limits assumed): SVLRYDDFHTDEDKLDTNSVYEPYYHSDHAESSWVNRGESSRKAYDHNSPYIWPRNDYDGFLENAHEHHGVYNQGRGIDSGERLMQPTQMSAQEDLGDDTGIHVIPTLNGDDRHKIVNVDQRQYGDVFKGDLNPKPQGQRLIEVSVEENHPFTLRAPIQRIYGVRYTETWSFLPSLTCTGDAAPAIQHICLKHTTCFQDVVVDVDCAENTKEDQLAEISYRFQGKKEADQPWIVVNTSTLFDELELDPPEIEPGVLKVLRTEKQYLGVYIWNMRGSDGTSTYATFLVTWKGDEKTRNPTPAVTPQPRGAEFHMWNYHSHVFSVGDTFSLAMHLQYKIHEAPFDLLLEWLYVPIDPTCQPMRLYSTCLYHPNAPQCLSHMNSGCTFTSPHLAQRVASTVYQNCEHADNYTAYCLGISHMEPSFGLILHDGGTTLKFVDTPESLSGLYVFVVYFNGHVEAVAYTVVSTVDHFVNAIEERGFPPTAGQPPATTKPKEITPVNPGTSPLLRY

For the molecule ESSRKAYDHNSPYIWPRNDY, the color development intensity in [1] amounted to 149 mAbs; in assay [2], 596 mAbs.
As for NSVYEPYYHSDHAESSWVNR, the color development intensity in assay [3] came out at 726 mAbs; in assay [4], 136 mAbs.
As to YYHSDHAESSWVNRGESSR, the color development intensity in assay [5] is 697 mAbs; in assay [6], 127 mAbs.

B1: Antibody 9 (antibody, V domains shown)
VH: EVQLEESGPELVKPGASVKIPCKASGYTFTDYNMDWVKQNHGKSLEWIGEINPENGGTIYNQTFKGKATLTVDKSSSTAYMELRSLTSEDTAVYYCARSPWFTYWGQGTLVTVSA
VL: DIVLTQTTASLSMAIGEIVTIRCITSTDIGDDMNWYQQKPGEPPKFLISEGNTLRPGVPSRFSSSGYGTDFVFTVENILSEDVADYYCLQSDNLPHVRLGDKVGNK
As to B1, the color development intensity worked out at 5 in assay [7]; 218 in assay [8]; 39 in [9]; 53 in assay [10]; 29 in [11]; 52 in [12].
On to SSWVNRGESSRKAYDHNSPY, for which the color development intensity in assay [13] worked out at 677 mAbs; in [14] it was 128 mAbs.
